Data taken from publication PMC3686096 (Journal of the American Chemical Society, 2013).

Assay: Control: unseeded Aβ1–40 solution checked for fibrils by TEM or AFM
Assay type: physicochemical
Conditions: unseeded 50 µM Aβ1–40 solution, 30 min incubation

Aβ1–40: 40-residue β-amyloid peptide, made by solid-phase synthesis; also literature fibrils of unspecified polymorph
fibril formation in unseeded solution: no fibrils were observed
